Results published in PMC6954272, “Structure and dynamics of the E. coli chemotaxis core signaling complex by cryo-electron tomography and molecular simulations” (Communications Biology, 2020).

Tests used:
[1] = molecular target: His6-tagged 4Q variant of the cytoplasmic fragment of the E. coli aspartate receptor Tar (His6-TarCF4Q) (E. coli) (UniProt P07017); assay: cryo-EM structure; cryo-electron tomography and sub-tomogram averaging of arrays reconstituted in vitro; His6-TarCF held on a Ni2+-NTA lipid monolayer; 9:18:18 µM TarCF:CheA:CheW; 75 mM Tris-HCl pH 7.4, 100 mM KCl, 5 mM MgCl2; overnight
[2] = molecular target: the molecule itself; assay: as above

Molecule “His6-tagged 4Q variant of the cytoplasmic fragment of the E. coli aspartate receptor Tar (His6-TarCF4Q) (from UniProt P07017 357-553) (domain or fragment)” has a stoichiometry N [1] of 6.

B1: E. coli histidine kinase CheA, domains P3-P4-P5 (P1-P2 deleted) (domain or fragment, UniProt P07363 264-654, looked up)
chain: IRVAVEKVDQLINLVGELVITQSMLAQRSSELDPVNHGDLITSMGQLQRNARDLQESVMSIRMMPMEYVFSRYPRLVRDLAGKLGKQVELTLVGSSTELDKSLIERIIDPLTHLVRNSLDHGIELPEKRLAAGKNSVGNLILSAEHQGGNICIEVTDDGAGLNRERILAKAASQGLTVSENMSDDEVAMLIFAPGFSTAEQVTDVSGRGVGMDVVKRNIQKMGGHVEIQSKQGTGTTIRILLPLTLAILDGMSVRVADEVFILPLNAVMESLQPREADLHPLAGGERVLEVRGEYLPIVELWKVFNVAGAKTEATQGIVVILQSGGRRYALLVDQLIGQHQVVVKNLESNYRKVPGISAATILGDGSVALIVDVSALQAINREQRMANTAA
notes: Histidine kinase CheA, E. coli, domains P3, P4 and P5 (pQM12: based on pKJ9 with del P1-P2); the atomic model covers residues 264-646; The methods also name pKJ9 (full-length CheA); the results say that CheA.P3-P4-P5 stood in the monolayer arrays; also called CheA.P3-P4-P5; CheA.P3.P4.P5; source: E. coli RP3098, plasmid pQM12, purified (Affi-gel Blue, Superdex 200, Mono Q)
In the case of B1, the stoichiometry N (CheA per receptor trimer-of-dimers (TOD)) [1] is reported as 1 and the “stoichiometry N” value [2] is reported as 2.

B2: E. coli adaptor protein CheW (natural protein)
chain: MTGMTNVTKLASEPSGQEFLVFTLGDEEYGIDILKVQEIRGYDQVTRIANTPAFIKGVTNLRGVIVPIVDLRIKFSQVDVDYNDNTVVIVLNLGQRVVGIVVDGVSDVLSLTAEQIRPAPEFAVTLSTEYLTGLGALGDRMLILVNIEKLLNSEEMALLDSAASEVA
B2 gave a stoichiometry N (CheW per receptor trimer-of-dimers (TOD)) [1] of 2.
